125 sequences from the supplement of paper PMC9112550, “Optimization of the antimicrobial peptide Bac7 by deep mutational scanning” (BMC Biology, 2022) can be followed below.
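Further: peptides expressed intracellularly from a pBAD plasmid library in pooled LB shake-flask culture, induced with 0.3% L-arabinose, DNA abundance read by NGS, three biological replicates, DESeq2 with apeglm shrinkage.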

The subject of the data set is Escherichia coli TOP10. The data set is described as follows: shrunken log2 fold change of peptide-encoding DNA abundance (4.5 h post-induction vs induction); higher = less antimicrobial activity (less host growth inhibition). The conditions noted are these: time post-induction: 4.5 h; library: site-saturation at positions 5, 18, 19, 20.
RRIRWRPPRLPRPRPRPWTDPRP: the “shrunken log2 fold change” value was -0.0932.
In the case of RRIRCRPPRLPRPRPRPFGQPRP it was -0.442; in that of RRIRFRPPRLPRPRPRPTMGPRP, 0.0497.
In the case of RRIRYRPPRLPRPRPRPVTQPRP, the “shrunken log2 fold change” value is 3.05.
For RRIRFRPPRLPRPRPRPPIKPRP the value was 0.0125; for RRIRIRPPRLPRPRPRPGGQPRP, 0.112.
For the sequence RRIRLRPPRLPRPRPRPLYMPRP, the “shrunken log2 fold change” value was -0.763.
For RRIRCRPPRLPRPRPRPADNPRP the value was -0.219; for RRIRARPPRLPRPRPRPHQNPRP, 0.409.
Consider RRIRQRPPRLPRPRPRPGRAPRP, for which the “shrunken log2 fold change” value stood at 0.474.
In the case of RRIRGRPPRLPRPRPRPNSLPRP it was 0.271.
In the case of RRIRTRPPRLPRPRPRPPCKPRP it was -0.193.
In the case of RRIRCRPPRLPRPRPRPWQQPRP it was -0.000303.
As to RRIRVRPPRLPRPRPRPNCCPRP, the “shrunken log2 fold change” value was -0.0903.
In the case of RRIRQRPPRLPRPRPRPVLVPRP it was 0.328.
Consider RRIRMRPPRLPRPRPRPFATPRP, for which the “shrunken log2 fold change” value is 0.609.
For RRIRSRPPRLPRPRPRPNTNPRP the value was -0.0164.
Regarding RRIRWRPPRLPRPRPRPIMIPRP, the “shrunken log2 fold change” value was -0.28.
For RRIRFRPPRLPRPRPRPQWRPRP the value was 1.49; for RRIRKRPPRLPRPRPRPLMWPRP, 0.284.
For RRIRNRPPRLPRPRPRPTYDPRP the value was -0.396; for RRIRFRPPRLPRPRPRPSDNPRP, -0.527.
With RRIRGRPPRLPRPRPRPFRGPRP, the “shrunken log2 fold change” value is -0.0655.
In the case of RRIRSRPPRLPRPRPRPITYPRP it was -0.361; in that of RRIRDRPPRLPRPRPRPMAVPRP, 0.417.
For RRIRRRPPRLPRPRPRPGQPPRP the value was 0.262.
In the case of RRIRNRPPRLPRPRPRPHPEPRP it was 0.00649; in that of RRIRSRPPRLPRPRPRPHGIPRP, -0.273; in that of RRIRIRPPRLPRPRPRPKCMPRP, -0.229.
RRIRDRPPRLPRPRPRPLETPRP: the “shrunken log2 fold change” value stood at 0.73.
Consider RRIRVRPPRLPRPRPRPEQPPRP, for which the “shrunken log2 fold change” value was 0.515.
In the case of RRIRYRPPRLPRPRPRPAIWPRP it was 0.0587; in that of RRIRFRPPRLPRPRPRPADTPRP, -0.109; in that of RRIRQRPPRLPRPRPRPPSIPRP, -0.0422.
For RRIRKRPPRLPRPRPRPNFSPRP the value was -0.084.
In the case of RRIRPRPPRLPRPRPRPKYYPRP it was -0.783; in that of RRIRERPPRLPRPRPRPPMFPRP, -0.203; in that of RRIRSRPPRLPRPRPRPNMNPRP, -0.573.
RRIRYRPPRLPRPRPRPSKNPRP: the “shrunken log2 fold change” value was -0.722.
RRIRARPPRLPRPRPRPYQPPRP: the “shrunken log2 fold change” value was 0.589.
For RRIRKRPPRLPRPRPRPFRQPRP the value was -0.0695; for RRIRLRPPRLPRPRPRPEKHPRP, -0.262.
In the case of RRIRKRPPRLPRPRPRPHRTPRP it was -0.19; in that of RRIRSRPPRLPRPRPRPNVWPRP, 0.109; in that of RRIRRRPPRLPRPRPRPHGIPRP, 0.0963.
In the case of RRIRGRPPRLPRPRPRPIVRPRP it was 0.211; in that of RRIRQRPPRLPRPRPRPAKFPRP, -0.103; in that of RRIRPRPPRLPRPRPRPWWWPRP, -0.00448.
Consider RRIRCRPPRLPRPRPRPGAEPRP, for which the “shrunken log2 fold change” value was found to be 0.239.
In the case of RRIRVRPPRLPRPRPRPNINPRP, the “shrunken log2 fold change” value was -0.608.
For RRIRDRPPRLPRPRPRPNMKPRP the value was 0.818.
In the case of RRIRQRPPRLPRPRPRPQISPRP, the “shrunken log2 fold change” value was -0.159.
As for RRIRTRPPRLPRPRPRPLHYPRP, the “shrunken log2 fold change” value is -0.592.
Consider RRIRFRPPRLPRPRPRPSLNPRP, for which the “shrunken log2 fold change” value is -0.642.
For RRIRDRPPRLPRPRPRPLCAPRP the value was 0.783.
For RRIRVRPPRLPRPRPRPRQQPRP the value was 0.168.
In the case of RRIRMRPPRLPRPRPRPPWHPRP it was 0.438; in that of RRIRFRPPRLPRPRPRPRCWPRP, 0.309; in that of RRIRIRPPRLPRPRPRPCYHPRP, -0.265.
Turning to RRIRLRPPRLPRPRPRPIWMPRP, the “shrunken log2 fold change” value was found to be 0.0146.
In the case of RRIRRRPPRLPRPRPRPYDCPRP it was -0.113.
For RRIRTRPPRLPRPRPRPSLCPRP the value was -0.0129.
In the case of RRIRHRPPRLPRPRPRPLSGPRP it was -0.35; in that of RRIRYRPPRLPRPRPRPPVAPRP, 0.0771.
As for RRIRNRPPRLPRPRPRPNGLPRP, the “shrunken log2 fold change” value was 0.00468.
As to RRIRTRPPRLPRPRPRPKHMPRP, the “shrunken log2 fold change” value is -0.081.
In the case of RRIRNRPPRLPRPRPRPIDTPRP it was -0.0154; in that of RRIRWRPPRLPRPRPRPGDCPRP, 0.00839.
In the case of RRIRSRPPRLPRPRPRPDCAPRP it was 0.187; in that of RRIRDRPPRLPRPRPRPVPMPRP, 0.115; in that of RRIRMRPPRLPRPRPRPSCYPRP, -0.348.
As to RRIRCRPPRLPRPRPRPDPWPRP, the “shrunken log2 fold change” value is -0.0438.
In the case of RRIRERPPRLPRPRPRPQGMPRP it was -0.284; in that of RRIRMRPPRLPRPRPRPMMQPRP, -0.00112; in that of RRIRPRPPRLPRPRPRPTIGPRP, -0.128.
RRIRLRPPRLPRPRPRPPTAPRP: the “shrunken log2 fold change” value came to 0.228.
With RRIRARPPRLPRPRPRPQKNPRP, the “shrunken log2 fold change” value was determined as 0.0395.
In the case of RRIRGRPPRLPRPRPRPQFRPRP it was 0.0341.
Turning to RRIRTRPPRLPRPRPRPCQHPRP, the “shrunken log2 fold change” value came to 0.0626.
For RRIRMRPPRLPRPRPRPCYFPRP the value was -0.289; for RRIRVRPPRLPRPRPRPMHNPRP, -0.268; for RRIRWRPPRLPRPRPRPTWYPRP, 0.27.
In the case of RRIRYRPPRLPRPRPRPTHWPRP it was 0.272; in that of RRIRSRPPRLPRPRPRPCHKPRP, -1.16.
Regarding RRIRIRPPRLPRPRPRPRTDPRP, the “shrunken log2 fold change” value is -0.158.
For RRIRSRPPRLPRPRPRPFRCPRP the value was -0.148; for RRIRHRPPRLPRPRPRPEDPPRP, 0.0512; for RRIRRRPPRLPRPRPRPMEMPRP, -0.0817.
For RRIRYRPPRLPRPRPRPHSEPRP, the “shrunken log2 fold change” value is -0.0168.
For RRIRFRPPRLPRPRPRPVKDPRP the value was -0.254.
Turning to RRIRWRPPRLPRPRPRPRQFPRP, the “shrunken log2 fold change” value worked out at 0.0819.
Take RRIRYRPPRLPRPRPRPNKIPRP: the “shrunken log2 fold change” value was -0.995.
Take RRIRGRPPRLPRPRPRPTSYPRP: the “shrunken log2 fold change” value amounted to 0.105.
In the case of RRIRGRPPRLPRPRPRPRCKPRP it was 0.476; in that of RRIRKRPPRLPRPRPRPNNKPRP, -0.162.
For RRIRRRPPRLPRPRPRPIYRPRP the value was -0.273.
For RRIRWRPPRLPRPRPRPAKFPRP the value was 0.0295; for RRIRHRPPRLPRPRPRPKKCPRP, -0.225; for RRIRNRPPRLPRPRPRPDVPPRP, -0.199.
Turning to RRIRDRPPRLPRPRPRPDCFPRP, the “shrunken log2 fold change” value turned out to be 1.04.
In the case of RRIRPRPPRLPRPRPRPKTDPRP it was -0.0446; in that of RRIRFRPPRLPRPRPRPMFWPRP, -0.0645; in that of RRIRWRPPRLPRPRPRPLINPRP, -0.229.
For RRIRNRPPRLPRPRPRPLLCPRP the value was 0.0225; for RRIRARPPRLPRPRPRPIRDPRP, 0.114.
For the sequence RRIRFRPPRLPRPRPRPDYIPRP, the “shrunken log2 fold change” value was 0.209.
Turning to RRIRVRPPRLPRPRPRPCPGPRP, the “shrunken log2 fold change” value came to 0.00413.
In the case of RRIRRRPPRLPRPRPRPSPCPRP it was 0.155; in that of RRIRFRPPRLPRPRPRPKKRPRP, 0.3; in that of RRIRNRPPRLPRPRPRPTPRPRP, 0.677.
For RRIRWRPPRLPRPRPRPVFSPRP the value was -0.0517; for RRIRLRPPRLPRPRPRPSKLPRP, -0.388; for RRIRSRPPRLPRPRPRPALTPRP, 0.369.
For RRIRNRPPRLPRPRPRPATRPRP the value was 0.322.
RRIRTRPPRLPRPRPRPHSRPRP: the “shrunken log2 fold change” value is 0.0646.
For RRIRHRPPRLPRPRPRPIQYPRP, the “shrunken log2 fold change” value was -0.122.
In the case of RRIRDRPPRLPRPRPRPFQQPRP it was -0.0599; in that of RRIRMRPPRLPRPRPRPGAGPRP, 1.22.
For RRIRQRPPRLPRPRPRPLWRPRP the value was 3.25; for RRIRFRPPRLPRPRPRPQVMPRP, -0.265; for RRIRYRPPRLPRPRPRPFSPPRP, -0.319.
For RRIRHRPPRLPRPRPRPMFRPRP, the “shrunken log2 fold change” value was -0.422.
In the case of RRIRMRPPRLPRPRPRPATYPRP it was 0.0281; in that of RRIRLRPPRLPRPRPRPRHRPRP, -0.0544; in that of RRIRIRPPRLPRPRPRPGNGPRP, 0.0389.
